Experimental data from US10442866 (BEIJING MABWORKS BIOTECH, dated 2019).
Where a chain is given by its changes, count along the chain named. Each block holds one binder with its values, some of them ahead of it.

What was measured:
[1] = target: T1, human OX40 expressed on HEK293A cells (human, UniProt P43489 29-277); assay: FACS on HEK293A cells
T1 construct: also called HEK293A/huOX40; HEK293A/human OX40 cells
T1 sequence: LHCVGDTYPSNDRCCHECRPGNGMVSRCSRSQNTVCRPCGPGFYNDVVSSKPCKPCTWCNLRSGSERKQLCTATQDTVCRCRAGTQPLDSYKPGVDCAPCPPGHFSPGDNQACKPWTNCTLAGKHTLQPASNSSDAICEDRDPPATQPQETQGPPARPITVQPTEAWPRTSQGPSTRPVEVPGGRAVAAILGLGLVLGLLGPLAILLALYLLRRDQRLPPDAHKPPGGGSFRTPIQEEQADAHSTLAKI
Method: (§1) Briefly, 10^5 HEK293A cells were seeded into each well of the 96-well plates and serially diluted anti-OX40 antibodies were added to the plates. After incubated at 4° C. for 1 hour, plates were washed 3 times with PBST. Then, an APC coupled Goat Anti-Mouse IgG (BioLegen, US, Cat#: 405308) diluted 500× was added to the plates. After incubation at 4° C. for 1 hour, the plates were washed with PBS for 3 times and then cell fluorescence was monitored using a FACS machine (BD).

[2] = target: T2, rhesus OX40 expressed on HEK293A cells (rhesus, UniProt P43489 29-277 (human entry)); assay: FACS on HEK293A cells
T2 construct: also called HEK293A/rhOX40; HEK293A/rhesusOX40 cells
T2 chain: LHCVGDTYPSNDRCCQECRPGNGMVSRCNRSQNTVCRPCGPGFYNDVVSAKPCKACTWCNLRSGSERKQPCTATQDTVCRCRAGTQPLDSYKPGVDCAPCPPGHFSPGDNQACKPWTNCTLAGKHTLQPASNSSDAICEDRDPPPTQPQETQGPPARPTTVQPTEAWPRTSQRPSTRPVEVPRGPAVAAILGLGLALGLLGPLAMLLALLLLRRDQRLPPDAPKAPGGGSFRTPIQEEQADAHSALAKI
Method: as §1

[3] = target: T3, murine OX40-His (Crown, Cat#: E3350-B1707) (mouse, UniProt P47741 20-211); assay: ELISA, coated muOX40-his
T3 construct: bought protein; also called mouse OX40-his; muOX40-his; not shown: His tag
T3 sequence: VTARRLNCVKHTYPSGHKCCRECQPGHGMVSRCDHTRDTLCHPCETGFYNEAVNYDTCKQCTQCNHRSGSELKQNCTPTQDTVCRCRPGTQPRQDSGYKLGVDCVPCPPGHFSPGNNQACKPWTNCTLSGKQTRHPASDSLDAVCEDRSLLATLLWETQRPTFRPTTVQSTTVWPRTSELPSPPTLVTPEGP

[4] = target: T4, recombinant human OX40-his (Sino Biological, Cat#:10481-H03H) (human, UniProt P43489 29-214); assay: ELISA, coated hOX40-his
T4 construct: bought protein; also called hOX40-his; not shown: His tag
T4 sequence: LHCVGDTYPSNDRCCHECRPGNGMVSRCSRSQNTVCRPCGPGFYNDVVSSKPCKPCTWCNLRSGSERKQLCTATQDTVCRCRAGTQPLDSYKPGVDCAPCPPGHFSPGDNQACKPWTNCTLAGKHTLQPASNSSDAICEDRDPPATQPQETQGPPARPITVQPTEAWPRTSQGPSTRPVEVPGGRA
Method: (§2) ELISA plates were coated with 500 ng/ml human OX40-his (used in Example 2) at 4° C. overnight. The wells were blocked with 200 µl of blocking buffer (PBS containing 1% BSA, 1% goat serum, 0.05% Tween 20) for 2 hours at room temperature, and then 100 µl of serially diluted anti-OX40 antibodies (starting from 40 µg/ml) were added to each well and incubated for 1 hour at RT. Plates were washed for 3 times with PBST (PBS+0.05% Tween 20), added with Goat-anti-mouse IgG-HRP (Simga, US, Cat#: A9309-1 ml) diluted 5000×, and incubated for 1 hour at RT. Plates were developed with freshly prepared Ultra-TMB (BD, US, Cat#: 555214) for 5 minutes at RT. Absorbance was read on a SpectraMax® i3× (Molecular Devies, US) at 450 nm.

[5] = target: T5, recombinant rhesus OX40-his (Sino Biological, Cat#:90846-C08H) (rhesus monkey, UniProt P43489 29-214 (human entry)); assay: ELISA, coated rhOX40-his
T5 construct: bought protein; also called monkey OX40-his; rhOX40-his; not shown: His tag
T5 chain: T4 sequence with H16Q, S29N, S50A, P55A, L70P, A145P, I159T, G173R, G183R, R185P
Method: as §2
Species-cross-reactivity of the 33 OX40 mAbs to monkey or mouse OX40 was further assessed by direct ELISA. Briefly, 500 ng/ml monkey OX40-his or mouse OX40-his (used in Example 2) was coated on 96-well ELISA plates followed by incubation with 100 µl of serially diluted anti-OX40 antibodies (starting from 40 µg/ml). Goat anti-mouse IgG (Sigma, US, Cat#:A9309-1 ml) conjugated with HRP was used then.

[6] = target: T6, human OX40-CD40 fusion protein on HEK-Blue reporter cells (human); assay: cell-based or functional assay
T6 chain: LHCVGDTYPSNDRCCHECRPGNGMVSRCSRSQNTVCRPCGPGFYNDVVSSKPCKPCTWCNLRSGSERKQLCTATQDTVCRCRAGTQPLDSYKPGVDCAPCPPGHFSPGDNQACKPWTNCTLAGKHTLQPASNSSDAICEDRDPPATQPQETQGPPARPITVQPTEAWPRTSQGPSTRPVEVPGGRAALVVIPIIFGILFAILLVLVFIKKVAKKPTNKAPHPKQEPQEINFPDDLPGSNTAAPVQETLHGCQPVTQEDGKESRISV

[7] = target: T7, mouse OX40 expressed on HEK293A cells (mouse, UniProt P47741 20-272); assay: FACS on HEK293A/muOX40 cells
T7 construct: also called HEK293A/muOX40; HEK293A/mouseOX40 cells
T7 sequence: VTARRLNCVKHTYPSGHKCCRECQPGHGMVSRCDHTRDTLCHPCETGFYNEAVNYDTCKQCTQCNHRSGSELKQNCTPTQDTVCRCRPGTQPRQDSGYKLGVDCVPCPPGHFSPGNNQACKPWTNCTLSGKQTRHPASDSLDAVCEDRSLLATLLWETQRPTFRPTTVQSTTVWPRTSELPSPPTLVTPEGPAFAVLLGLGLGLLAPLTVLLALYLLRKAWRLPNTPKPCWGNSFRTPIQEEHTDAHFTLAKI
Method: as §1

[8] = target: T5, recombinant rhesus OX40-his (Sino …); assay: ELISA on coated rhesus OX40-His, OD450
[9] = target: T3, murine OX40-His (Crown, Cat#: …); assay: ELISA on coated mouse OX40-His, OD450
[10] = target: T4, recombinant human OX40-his (Sino …); assay: ELISA on coated human OX40-His, OD450
[11] = target: T4, recombinant human OX40-his (Sino …); assay: SPR Biacore 8K, OX40-His on chip, antibody injected
Method: SPR assays were used to determine the binding affinity of the chimetic or humanized anti-OX40 antibodies to human OX40 with the BIAcore™ 8K instrument (GE Life Sciences). Briefly, 100-200 response units (RU) of human OX40-His protein (Sino Biological, CN, Cat#:10481-H03H, Lot no.: MA08MA3003) were coupled to CM5 biosensor chips (Cat#: BR-1005-30, GE Life Sciences), followed by blocking of un-reacted groups with 1M ethanolamine. Serially diluted antibodies at concentrations ranging from 0.3 µM to 10 µM were injected into the SPR running buffer (HBS-EP buffer, pH7.4, GE Life Sciences; US; Cat#:BR-1006-69) at 30 µL/minute. The binding capacitity was calculated with the RUs of blank controls subtracted. The association rate (k_a) and dissociation rate (k_d) were calculated using the one-to-one Langmuir binding model (BIA Evaluation Software, GE Life Sciences). The equilibrium dissociation constant K_D was calculated as the k_d/k_a ratio.

[12] = target: T1, human OX40 expressed on HEK293A cells; assay: FACS on HEK293A/huOX40 cells
[13] = target: T2, rhesus OX40 expressed on HEK293A cells; assay: FACS on HEK293A/rhOX40 cells
[14] = target: T2, rhesus OX40 expressed on HEK293A cells; assay: FACS on HEK293A/rhesus OX40 cells, MFI (panel without title; monkey OX40 by the legend)
Method: as §1
Example 15 Humanized Anti-OX40 Antibodies Bound to Human or Rhesus OX40 Expressed on HEK293A Cells The humanized anti-OX40 antibodies were also tested for their ability of binding to HEK293A/huOX40 cells or HEK293A/rhOX40 cells, following the FACS analysis protocol as described in Example 5.

[15] = target: T3, murine OX40-His (Crown, Cat#: …); assay: ELISA

B1: 68C8 (murine monoclonal antibody) (antibody, V domains shown)
VH: QVQLQQSGAELVKPGASVKMSCKASGDTFTSYWITWVKQRPGQGLEWIGDIHPGSGSTNNNEKFKNKATLTVDTSSSTAYMQLSSLTSEDSAVYYCAKLRPYYFVYWGQGTTLTVSS
VL: DIQMTQTTSSLSASLGDRVTISCRASQDISNYLNWYQQKPDGTVKLLIYYTSRLLSGVPSRFSGSGSGTDYSLTISNLEQEDIATYFCQQGNTLPLTFGAGTRLELK
- EC50 [1]: 0.113 µg/mL
- EC50 [2]: 0.095 µg/mL
- binding result [3]: no binding (tested: serial dilution from 40 µg/ml)
- EC50 [4]: 0.0483 µg/mL
- EC50 [5]: 0.06 µg/mL
- EC50, agonistic activity in HEK-Blue assay [6]: 0.0866 µg/mL
- binding result [7]: no binding

B3: 71H8 (murine monoclonal antibody) (antibody, V domains shown)
VH: B1 VH with D27Y, H52Y, N60Q, N66S
VL: B1 VL with T8P, R103K
- EC50 [1]: 0.113 µg/mL
- EC50 [2]: 0.126 µg/mL
- binding result [3]: no binding (tested: serial dilution from 40 µg/ml)
- EC50 [4]: 0.052 µg/mL
- EC50 [5]: 0.0501 µg/mL
- EC50, agonistic activity in HEK-Blue assay [6]: 0.0494 µg/mL
- binding result [7]: no binding

B4: 6A12 (murine monoclonal antibody) (antibody, V domains shown)
VH: QVQLQQSGPELVKPGASVKISCKASGYAFSSSWMNWVKQRPGKGLEWIGRIYPGDGITNYNGNFKGKATLTADKSSSTAYMQLSGLTSADSAVYFCAREFIPLGWGTGTTVTVSS
VL: DIVMTQTPFSNPVTLGTSASISCRSSKSLLHSNGITYLYWYLQKPGQSPQLLIYQMSNLASGVPDRFSSSGSGTDFTLRISRVEAEDVGVYYCAQNLELPWTFGGGTKLEIK
- EC50 [1]: 0.406 µg/mL
- EC50 [2]: 0.253 µg/mL
- binding result [3]: no binding (tested: serial dilution from 40 µg/ml)
- EC50 [4]: 0.0415 µg/mL
- EC50 [5]: 0.05 µg/mL
- EC50, agonistic activity in HEK-Blue assay [6]: 0.274 µg/mL
- binding result [7]: no binding

The remaining lines, values ahead:

- EC50 (read off the curve) [8]: ~0.003 µg/mL
- binding result [9]: no binding (tested: 10000 ng/ml (log 4))
- EC50 (read off the curve) [10]: ~0.003 µg/mL
- Kd [11]: 0.158 nM
- koff [11]: 8.28e-05 s⁻¹
- kon [11]: 525000 M⁻¹ s⁻¹
- EC50 [12]: 0.144 µg/mL
- EC50 [13]: 0.151 µg/mL
B2: chimeric antibody 71H8 (antibody, human IgG1, kappa, V domains shown)
VH: B1 VH with D27Y, H52Y, N60Q, N66S
VL: DIQMTQTPSSLSASLGDRVTISCRASQDISNYLNWYQQKPDGTVKLLIYYTSRLLSGVPSRFSGSGSGTDYSLTISNLEQEDIATYFCQQGNTLPLTFGAGTKLELKR
notes: mouse variable regions with human IgG1/kappa constant regions

- EC50 (read off the curve) [8]: ~0.003 µg/mL
- binding result [14]: binds
- EC50 (read off the curve) [10]: ~0.003 µg/mL
- Kd [11]: 37.2 nM
- koff [11]: 0.00871 s⁻¹
- kon [11]: 234000 M⁻¹ s⁻¹
- binding result [15]: no binding
B5: 71H8-VH3VL2 (antibody, human IgG1, kappa, V domains shown)
VH: QVQLVQSGAEVKKPGASVKVSCKVSGYTFTSYWITWVRQRPGQGLEWIGDIYPGSGSTNQNEKFKSRVTLTVDTSTDTAYMELSSLRSEDTAVYYCATLRPYYFVYWGQGTLVTVSS
VL: DIQMTQSPSSLSASVGDRVTITCRASQDISNYLNWYQQKPGKTPKLLIYYTSRLLSGVPSRFSGSGSGTDYTLTISSLQPEDFATYYCQQGNTLPLTFGQGTRLEIKR
notes: humanized; also called 71H8-H3L2
